“Also recorded” adds a separate entry of the source. Read-outs that look alike come from different tables or passages of the source.
Key:
hK6 [1] = target: T1, hK6 (Homo sapiens, UniProt Q92876); assay: YSD binding of 50 nM hK6 in presence of active-site small molecule
Protocol: Next, different concentrations of the polypeptides having SEQ ID Nos: 8, 13, and 14 were tested for their ability to bind 50 nM hK6 in the presence of a small molecule which target and home the serine residue in the active pocket of hK6.

AGS gastric cancer cells = assay: Matrigel ThinCerts invasion assay; type: cell-based
Protocol: The effects of […] (SEQ ID NO: 13) on the invasive behavior of AGS gastric cancer cells was examined. For invasion assays AGS cells were plated in the top chamber of a Matrigel coated […] (Greiner Bio-One, Germany), with an 8 μm pored membrane in 160 μl serum-free Ham's F-12 medium, in triplicate. 1 uM-10 uM of APPI (SEQ ID NO: 13) or a vehicle (50 mM Tris-HCl, 100 mM NaCl, Ph 7.3) in 40 μl were added to each insert. Next, the inserts were placed into the bottom chamber wells of a 24-well plate containing Ham's F-12 with 10% FBS as a chemo-attractant. After 48 hours of incubation, cells remaining on the inserts' top layers were removed by cotton swab scrubbing; Cells on the lower surface of the membrane were fixed in 100%/methanol and stained with Romanowski stain solutions. The cell numbers in 10 random fields (×20) were counted for each chamber and the average value was calculated.

hK6 [2] = target: T1, hK6; assay: Surface plasmon resonance, APPI on nickel chip, hK6 analyte; type: binding; details: SPR
Protocol: APPIs were immobilized to a SPR nickel chip via the proteins His tag, and hK6 protein served as the analyte. The experiment was conducted at 25° C. APPI concentrations were 0.6125 nM, 1.25 nM, 2.5 nM, 5 nM, and 10 nM.
To this end, APPIs were mounted on a surface Plasmon resonance (SPR) nickel chip by their His tag, and hK6 molecules served as the analyte.

SW-480 cells = assay: XTT proliferation assay; type: cell-based; details: 100 nM, 1 μM, 10 μM, 48 hours
Protocol: (§1) The effect of an APPI variant (SEQ ID NO: 13) on proliferation of gastric cancer cells was evaluated by XTT assay. AGS, HCT-116 and SW-480 cells were plated into 96-well plates in 9600 cells/well in duplicate, and allowed to adhere for 4 hours. Each well was supplemented with 100 nM, 1 μM, or 10 μM […] (SEQ ID NO: 13) or a vehicle (50 mM Tris-HCl, 100 mM NaCl, Ph 7.3), and cells were incubated for 48 hours. Proliferation was measured by XTT following the manufacturer instructions (Biological Industries, Ill.).

AGS cells = assay: XTT proliferation assay; type: cell-based; details: 100 nM, 1 μM, 10 μM, 48 hours
Protocol: as §1

HCT-116 cells = assay: XTT proliferation assay; type: cell-based; details: 100 nM, 1 μM, 10 μM, 48 hours
Protocol: as §1

mesotrypsin [3] = target: T2, mesotrypsin (Homo sapiens, UniProt P35030); assay: Mesotrypsin inhibition, cleavage of Z-GPR-pNA; type: biochemical; parameters: made in house
T2 sequence (P35030 81-304 limits assumed): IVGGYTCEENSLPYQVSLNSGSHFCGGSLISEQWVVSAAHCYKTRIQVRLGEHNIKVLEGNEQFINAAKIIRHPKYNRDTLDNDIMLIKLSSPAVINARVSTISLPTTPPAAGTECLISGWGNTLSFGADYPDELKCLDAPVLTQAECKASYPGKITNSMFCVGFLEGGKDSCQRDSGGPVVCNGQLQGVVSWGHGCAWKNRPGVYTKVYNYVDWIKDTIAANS

mesotrypsin [4] = target: T2, mesotrypsin; details: literature (Knecht et al. 2007; Radisky et al. 2003); cited from earlier work
mesotrypsin [5] = target: T2, mesotrypsin; assay: Hydrolysis of APPI variants by mesotrypsin, HPLC time course; type: biochemical; parameters: made in house

## SEQ ID NO: 13: APPI variant, EVCSEQAETGPCRALFFRWYFDVTEGKCAPFVYGGCGGNRNNFDTEEYCMAVCGSAI
hK6 [1]; 50 nM hK6, yeast display
  binding to hK6 compared with SEQ ID NO: 8: higher binding
hK6 [1]; high concentrations of small molecule targeting active-site Ser of hK6
  binding to hK6 in presence of small molecule: diminished
AGS gastric cancer cells; 10 μM APPI (b288 prints 10M), 48 hours
  invasive cells per field: 1.46±0.48 cells/field
AGS gastric cancer cells; 10 μM APPI (b288 prints 10M), 48 hours, vs vehicle
  invasion capacity reduced: 77%
AGS gastric cancer cells; compared with vehicle
  transmembrane invasion: significantly lower transmembrane invasion capacity; also recorded: inhibits cell invasion
hK6 [2]; 25° C.
  Kd: 0.351 nM
hK6 [2]; compared to APPI WT
  improvement in binding to hK6: 22.5 folds
SW-480 cells
  proliferation (XTT): did not inhibit proliferation
AGS cells
  proliferation (XTT): did not inhibit proliferation
HCT-116 cells
  proliferation (XTT): did not inhibit proliferation
Mesotrypsin [3]; Example 10, read-out: Ki (mesotrypsin activity)
  Ki: 5.38 nM

## bovine pancreatic trypsin inhibitor [BPTI]
Mesotrypsin [4]
  proteolytic stability toward mesotrypsin: the more stable of the two

## APPIT11C/M17G/I18F/F34C: APPI variant, EVCSEQAECGPCRAGFSRWYFDVTEGKCAPFCYGGCGGNRNNFDTEEYCMAVCGSAI
Mesotrypsin [3]; Table 4, read-out: Ki
  Ki: 149 nM
Mesotrypsin [5]; Table 4
  Kcat: 0.00521 s⁻¹
  turnover time: 192.21 s
Mesotrypsin [5]; proteolytic stability relative to APPI-WT
  Turnover time (fold): around 2 fold
